Numbered stars: 1 amine (or outer) side, 2 acyl side, 3 side chain; on linkers, the order of the positions; unused ones are H or OH. Bridge positions count the residues as written; N and C are the ends. Peptide text beside a SMILES is read from it. * marks the point of attachment. Doxorubicin(3'-N) = COc1cccc2c1C(=O)c1c(O)c3c(c(O)c1C2=O)C[C@@](O)(C(=O)CO)C[C@@H]3O[C@H]1C[C@H](N*)[C@H](O)[C@H](C)O1; Suc = O=C(CCC(=O)[*:2])[*:1]; AEEEA = NCCOCCOCCOCC(=O)O
Tests used:
HL-60 cells = details: HL-60, 10 μM, 1 h; for intracellular fluorescence distribution / uptake at 4 °C / intracellular fluorescence distribution at 37 °C: RPMI 1640, epifluorescence, rhodamine filter; for entry mechanism into cells: 37 °C compared with 4 °C
[1] = system: ICAM-1/LFA-1-mediated heterotypic T-cell adhesion; details: cited from earlier work
I-domain of LFA-1 = details: cited from earlier work
[2] = pH 7.4; cited from earlier work

## COc1cccc2c1C(=O)c1c(O)c3c(c(O)c1C2=O)C[C@@](O)(C(=O)CO)C[C@@H]3O[C@H]1C[C@H](NC(=O)CCC(=O)NCCOCCOCCOCC(=O)N[C@H]2CSSC[C@@H](C(=O)O)NC(=O)[C@H](C(C)C)NC(=O)[C@H](CO)NC(=O)CNC(=O)CNC(=O)[C@H](CCCNC(=N)N)NC(=O)[C@@H]3CCCN3C2=O)[C@H](O)[C@H](C)O1 [DOX-PEGcIBR7] ({Doxorubicin(3'-N)-Suc-AEEEA}-CPRGGSVC-OH; disulfide 1-8)
HL-60 cells
  intracellular fluorescence distribution / uptake at 4 °C: diffuse fluorescence of the conjugates inside the cell cytosol
  entry mechanism into cells: passive diffusion
  intracellular fluorescence distribution at 37 °C: diffuse fluorescence distribution pattern in the cellular cytoplasm

## COc1cccc2c1C(=O)c1c(O)c3c(c(O)c1C2=O)C[C@@](O)(C(=O)CO)C[C@@H]3O[C@H]1C[C@H](NC(=O)CCC(=O)N[C@H]2CSSC[C@@H](C(=O)O)NC(=O)[C@H](C(C)C)NC(=O)[C@H](CO)NC(=O)CNC(=O)CNC(=O)[C@H](CCCNC(=N)N)NC(=O)[C@@H]3CCCN3C2=O)[C@H](O)[C@H](C)O1 [DOX-cIBR7] ({Doxorubicin(3'-N)-Suc}-CPRGGSVC-OH; disulfide 1-8)
HL-60 cells
  intracellular fluorescence distribution / uptake at 4 °C: diffuse fluorescence of the conjugates inside the cell cytosol
  entry mechanism into cells: passive diffusion
  intracellular fluorescence distribution at 37 °C: diffuse fluorescence distribution pattern in the cellular cytoplasm

## cyclo(1,6)PRGGKV (head to tail)
[1]
  peptide activity after introduction of Lys5 in place of Ser5: lower peptide activity

## cyclo(1,8)CPRGGSVC (disulfide) [cIBR7]
I-domain of LFA-1
  binding affinity to the isolated I-domain compared with cIBR: higher
[1]
  activity to inhibit heterotypic T-cell adhesion compared with parent cIBR: better activity

## CNGRC [DOX-CNGRC]
[2]
  distribution ratio: 5.3

## COc1cccc2c1C(=O)c1c(O)c3c(c(O)c1C2=O)C[C@@](O)(C(=O)CO)C[C@@H]3O[C@H]1C[C@H](N)[C@H](O)[C@H](C)O1 [DOX, Doxorubicin, reference compound]
[2]
  distribution ratio: 1.2
HL-60 cells
  intracellular fluorescence distribution / uptake at 4 °C: uptake of DOX was suppressed
  intracellular fluorescence distribution at 37 °C: localized inside the nucleus
